Laboratory results from PMC7835349 (Communications Biology, 2021).
Several values for one entry are separate records, joined by “and”; a condition that tells them apart may be missing. Identical values can stand only once.

Tests used:
[1] = Tumour pharmacokinetics (released and total AZD4320) in RS4;11 tumours; format: in vivo, C.B-17 SCID mouse; conditions: for Concentration of Released AZD4320 in Tumour, Mean / Concentration of Released AZD4320 in Tumour, individual samples (Fig 5g/5h) / Concentrations of Total AZD4320 in Tumour, individual samples: 10 mg/kg AZD4320 equivalent; for Concentration of Released AZD4320 in Tumour, individual samples (Fig 5g/5h) / Concentrations of Total AZD4320 in Tumour, individual samples / Concentration of total AZD4320 in tumour: listed as SPL-8977; for Mean concentration of total AZD4320 in tumour / Concentration of total AZD4320 in tumour: tumour tissue; for Mean concentration of total AZD4320 in tumour: mean of 3 samples
From the text: For tumour measurements, tumours were harvested, split into smaller pieces and snap frozen in liquid nitrogen. Frozen tumour samples were subsequently weighed and then homogenised for both ‘released’ and ‘total’ AZD4320. For ‘released’ AZD4320, samples were homogenised on ice with an equal volume (w/v) of blank plasma containing 0.2 M citric acid. The samples were then processed according to the aforementioned plasma approach. For ‘total’ AZD4320, samples were homogenised with an equal volume of plasma (w/v) and then processed according to the aforementioned ‘total’ approach.
Sample analyses were performed in batches containing study samples, calibration standards at 10 concentration levels, QC samples at three concentration levels in duplicate and blank samples. The analytical run acceptance criteria for calibration standards and QC samples was that at least 75% of back-calculated concentrations for calibration standards and at least 2/3 of the QC samples (at least 50% at each concentration level) should be within ±20% (±25% at LLOQ) from nominal value.
Female C.B.−17 SCID mice were purchased from Charles River Laboratories. Mice were 5–8 weeks old at the time of tumour implantation. All xenograft studies were conducted at our Association for the Assessment and Accreditation of Laboratory Animal Care accredited facility in Waltham, MA in accordance with ethical regulations described in the guidelines established by the internal Institutional Animal Care and Use Committee. The dendrimer conjugates were formulated in citrate/phosphate buffer pH 5.0, diluted 1:10 with 5% glucose containing 1% w/v Kolliphor HS15, and AZD4320 was formulated in 30% HP-β-CD and dosed as a weekly intravenous (IV) administration at a volume of 5 ml/kg at the indicated doses. Five million RS4;11, five million SUDHL-4 or five million OCI-LY-10 cells were injected subcutaneously in the right flank of mice in a volume of 0.1 ml. Tumour volumes (measured by caliper), animal body weight, and tumor condition were recorded twice weekly for the duration of the study. The tumour volume was calculated (taking length to be the longest diameter across the tumour and width to be the corresponding perpendicular diameter) using the formula: length (mm) x width (mm)^2/0.52. For efficacy studies, mice were randomized based on tumour volumes using stratified sampling and enrolled into control and treatment groups. Tumour growth inhibition from the start of treatment was quantified by measuring the difference in tumour volume between control and treated groups. Survival analysis was evaluated using Mantel-Cox test. Tumours were also taken for bioanalysis.

[2] = tested on: telemetered dogs; experiment: Conscious dog telemetry (QRS amplitude and other cardiovascular parameters, tolerability)
[3] = RS4;11, single dose AZD0466 34 mg/kg, 3 h, 34 mg/kg
[4] = RS4;11, single dose AZD0466 34 mg/kg, 8 h, 34 mg/kg
[5] = RS4;11, single dose AZD0466 34 mg/kg, 24 h, 34 mg/kg
[6] = RS4;11, single dose AZD0466 34 mg/kg, 48 h, 34 mg/kg
[7] = RS4;11, single dose AZD0466 34 mg/kg, 72 h, 34 mg/kg
[8] = RS4;11, single dose AZD0466 103 mg/kg, 3 h, 103 mg/kg
[9] = RS4;11, single dose AZD0466 103 mg/kg, 8 h, 103 mg/kg
[10] = RS4;11, single dose AZD0466 103 mg/kg, 24 h, 103 mg/kg
[11] = RS4;11, single dose AZD0466 103 mg/kg, 48 h, 103 mg/kg
[12] = RS4;11, single dose AZD0466 103 mg/kg, 72 h, 103 mg/kg
[13] = dog, AZD0466 10 mg/kg (3 mg/kg AZD4320 equivalent), 1 h infusion
[14] = dog, AZD0466 30 mg/kg (9 mg/kg AZD4320 equivalent), 1 h infusion
[15] = dog, AZD0466 60 mg/kg (18 mg/kg AZD4320 equivalent), 1 h infusion

AZD4320-MIDA-PEG2100 [AZD0466]
Concentration of Released AZD4320 in Tumour, Mean ([1]; 1 hr): 8.1 ng/mL
Concentration of Released AZD4320 in Tumour, individual samples (Fig 5g/5h) ([1]; 1 hr): 8.2 ng/mL and 11.2 ng/mL and 4.7 ng/mL
Concentration of Released AZD4320 in Tumour, Mean ([1]; 3 hr): 15.1 ng/mL
Concentration of Released AZD4320 in Tumour, individual samples (Fig 5g/5h) ([1]; 3 hr): 16 ng/mL and 18.8 ng/mL and 10.4 ng/mL
Concentration of Released AZD4320 in Tumour, Mean ([1]; 9 hr): 109 ng/mL
Concentration of Released AZD4320 in Tumour, individual samples (Fig 5g/5h) ([1]; 9 hr): 178.8 ng/mL and 71.4 ng/mL and 78 ng/mL
Concentrations of Total AZD4320 in Tumour, individual samples ([1]; 9 hr): 1886 ng/mL and 831 ng/mL and 866 ng/mL
Concentration of Released AZD4320 in Tumour, Mean ([1]; 20 hr): 244 ng/mL
Concentration of Released AZD4320 in Tumour, individual samples (Fig 5g/5h) ([1]; 20 hr): 214.9 ng/mL and 250.1 ng/mL and 267.9 ng/mL
Concentration of Released AZD4320 in Tumour, Mean ([1]; 48 hr): 389 ng/mL
Concentration of Released AZD4320 in Tumour, individual samples (Fig 5g/5h) ([1]; 48 hr): 493.9 ng/mL and 123.4 ng/mL and 550.2 ng/mL
Concentrations of Total AZD4320 in Tumour, individual samples ([1]; 48 hr): 1152 ng/mL and 319 ng/mL and 1257 ng/mL
Concentration of Released AZD4320 in Tumour, Mean ([1]; 72 hr): 462 ng/mL
Concentration of Released AZD4320 in Tumour, individual samples (Fig 5g/5h) ([1]; 72 hr): 290.2 ng/mL and 611.5 ng/mL and 485 ng/mL
Tumor PK Released AZD4320, individual tumours [1, 3]: 16 ng/g and 18.8 ng/g and 10.4 ng/g
Tumor PK Total AZD4320, individual tumours [1, 3]: 621 ng/g and 697 ng/g and 376 ng/g
Tumor PK Released AZD4320, individual tumours [1, 4]: 179 ng/g and 71.4 ng/g and 78 ng/g
Tumor PK Total AZD4320, individual tumours [1, 4]: 1886 ng/g and 831 ng/g and 866 ng/g
Tumor PK Released AZD4320, individual tumours [1, 5]: 215 ng/g and 250 ng/g and 268 ng/g
Tumor PK Total AZD4320, individual tumours [1, 5]: 926 ng/g and 923 ng/g and 1118 ng/g
Tumor PK Released AZD4320, individual tumours [1, 6]: 494 ng/g and 123 ng/g and 550 ng/g
Tumor PK Total AZD4320, individual tumours [1, 6]: 1152 ng/g and 319 ng/g and 1257 ng/g
Tumor PK Released AZD4320, individual tumours [1, 7]: 290 ng/g and 612 ng/g and 485 ng/g
Tumor PK Total AZD4320, individual tumours [1, 7]: 536 ng/g and 983 ng/g and 719 ng/g
Tumor PK Released AZD4320, individual tumours [1, 8]: 227 ng/g and 79 ng/g and 90 ng/g
Tumor PK Total AZD4320, individual tumours [1, 8]: 5852 ng/g and 2518 ng/g and 2703 ng/g
Tumor PK Released AZD4320, individual tumours [1, 9]: 1407 ng/g and 1218 ng/g and 972 ng/g
Tumor PK Total AZD4320, individual tumours [1, 9]: 14358 ng/g and 9822 ng/g and 9418 ng/g
Tumor PK Released AZD4320, individual tumours [1, 10]: 1730 ng/g and 1595 ng/g and 1484 ng/g
Tumor PK Total AZD4320, individual tumours [1, 10]: 4335 ng/g and 4133 ng/g and 3920 ng/g
Tumor PK Released AZD4320, individual tumours [1, 11]: 3581 ng/g and 4025 ng/g and 5214 ng/g
Tumor PK Total AZD4320, individual tumours [1, 11]: 6225 ng/g and 5604 ng/g and 9523 ng/g
Tumor PK Released AZD4320, individual tumours [1, 12]: 3295 ng/g and 5783 ng/g and 7049 ng/g
Tumor PK Total AZD4320, individual tumours [1, 12]: 6132 ng/g and 7039 ng/g and 8246 ng/g
Mean concentration of total AZD4320 in tumour ([1]; 1 hr): 536 ng/mL
Concentration of total AZD4320 in tumour ([1]; 1 hr): 553 ng/mL and 665 ng/mL and 390 ng/mL
Mean concentration of total AZD4320 in tumour ([1]; 3 hr): 565 ng/mL
Concentration of total AZD4320 in tumour ([1]; 3 hr): 621 ng/mL and 697 ng/mL and 376 ng/mL
Mean concentration of total AZD4320 in tumour ([1]; 9 hr): 1194 ng/mL
Mean concentration of total AZD4320 in tumour ([1]; 20 hr): 989 ng/mL
Concentration of total AZD4320 in tumour ([1]; 20 hr): 926 ng/mL and 923 ng/mL and 1118 ng/mL
Mean concentration of total AZD4320 in tumour ([1]; 48 hr): 909 ng/mL
Mean concentration of total AZD4320 in tumour ([1]; 72 hr): 746 ng/mL
Concentration of total AZD4320 in tumour ([1]; 72 hr): 536 ng/mL and 983 ng/mL and 719 ng/mL
other cardiovascular effects ([2]; conscious telemetered dogs, 1-hour infusion): A small increase in diastolic BP, a transient and delayed-onset small increase in heart rate, a decrease in dP/dt+ (an index of cardiac contractility) and a decrease in PR interval
effect on QRS amplitude ([2]; conscious telemetered dogs, 1-hour infusion, 30 and 60 mg/kg): dose-dependent decrease in QRS amplitude that returned to baseline
NOEL (no observed effect level), cardiovascular system ([2]; dog): 10 mg/kg
improvement in cardiovascular tolerability based on dose vs AZD4320 ([2]; dog): 18 fold
effect on QRS amplitude ([2]; dog, 10 mg/kg AZD0466 (equivalent to 3 mg/kg AZD4320)): no effect on QRS amplitude
Effects [2, 13]: No effect level
Tolerated? [2, 13]: Yes
Tolerated? [2, 14]: Yes
↓QRS amplitude (% decrease) [2, 14]: 30%
Effects other than QRS amplitude [2, 15]: ↑DBP, ↑HR, ↓dP/dt+, ↓PR interval, ↓LVEDP
Tolerated? [2, 15]: Yes
↓QRS amplitude (% decrease) [2, 15]: 33%
